Measured values as given in US6858210B1, “Therapeutic and diagnostic domain 1 β2GPI polypeptides and methods of using same” (La Jolla Pharmaceutical Co., priority 1998, dated 2005).

Columns and labels:
APS patient plasma = assay: Surface plasmon resonance (BIAcore): APS patient plasma/serum over immobilized β2GPI proteins; format: binding, human; design: key: Req = fitted equilibrium plateau BIAcore response; details: for Req (mean ± sem): diluted 1:1
Text: (§1) Reagents. CM5 chips, NHS and EDC and HBS-EP buffer were from BIAcore. Human haptoglobin (phenotyope 1—1), a protein containing the short consensus repeat motif found in β2GPI, was immobilized in a separate flow cell on the chip and used as a negative control. Recombinant β2GPI and domain-deletion mutants of β2GPI were expressed in Tn5 cells using the baculovirus protein expression system and purified from the supernatants by nickel-chelation affinity column. Iverson et al. (1998) Proc. Natl. Acad. Sci. USA 95:15542-15546. Normal human plasma samples were purchased (George King Biomedical) or obtained in-house. Patient plasma samples from individuals diagnosed with either primary or secondary (to lupus) antiphospholipid antibody syndrome were obtained from a number of clinical sources.
(§2) The 55 controls used in this study were derived from a heterogenous sample. Thirty control samples (15 male; 15 female; mean age 34 yrs, range 19-45 yrs) purchased from George King Bio-Medical (Overland Park, Kans.), 5 local volunteers (3 male, 2 female), 2 pooled commercial sources and 18 blood bank donors of unknown origin were included in the analysis. The patient samples were collected from several sources and included patients with histories of venous thrombosis, arterial occlusions, cerebrovascular occlusions, multiple miscarriages and thrombocytopenia. All patients included in the study had IgG antiphospholipid antibody level (GPL) levels>20 by internal assay.
Total IgG fraction was isolated from plasma using Immunopure Plus protein G agarose beads and Immunopure IgG binding and elution buffers according to the manufacturers recommendation (Pierce).
(§3) Surface Plasmon Resonance. All experiments were performed using a BIAcore™ 2000 instrument at 25° C. with a flow rate of 10 μL/minute. Chip equilibration and binding studies were performed with degassed HBS-EP buffer, which consists of 0.01 M HEPES pH 7.4, 0.15 M NaCl, 3 mM EDTA and 0.005% (v/v) surfactant P20. Covalent coupling of protein ligands through their free amino groups to the CM5 chip was accomplished by flowing 40 μL of 0.05 M NHS/0.2M EDC over the chip to activate the chip, followed by exposure to the appropriate protein ligand. Recombinant β2GPI(His)6, domain-deletion mutants of β2GPI and haptoglobin were immobilized by flowing 50 μL of a 25 μg/mL solution in 10 mM acetate, (pH 4.8) over the NHS-activated CM5 chip. The excess reactive groups on the chip surface are then quenched with 40 μL of 1 M ethanoloamine, (pH 8.5). Human plasma samples (130 μL) were diluted 1:1 with HBS-EP, flowed over the β2GPI chip, and response values were collected for 780 seconds. The chips were regenerated between sample exposures with 80 μL of 0.1 M glycine-HCl (pH 2.1), 0.1 M NaCl. Since the approach to binding equilibrium was incomplete during the measurement period, the equilibrium binding value (Req) was determined by fitting the association curves to the following equation using the manufacturers software (BiaEvaluation version 2.2, Uppsala, Sweden) Rt=Req(I−e^−ks(t−t0))+R0 where Rt is the measured BIAcore response at time t, Req is the equilibrium plateau response, t is time, t0 is initial time, k, is an apparent association constant (ks=kaC+kdis, where ka is the association constant, C is the analyte concentration and kdis is the dissociation constant), and R0 is a response offset. In some experiments total IgG fractions from human plasma samples were obtained from binding to and acid elution from protein G. The plasma remaining after binding to protein G was remixed with fresh protein G beads and isolated as IgG-stripped plasma. Neutralized IgG preparations and IgG-stripped plasma diluted 1:1 with buffer were flowed over the β2GPI chip as described above. Results and Discussion

Normal human plasma = assay: Surface plasmon resonance (BIAcore): control plasma/serum over immobilized β2GPI proteins; format: binding; details: serum of 55 controls; for Req (mean ± sem): diluted 1:1
Text: as §1, §2
as §3, with “Neutralized IgG preparations and IgG-stripped plasma diluted 1:1 with buffer were flowed over the β2GPI chip as described above. Results and Discussion” left out

B1: 12345: recombinant full length human β2GPI (domains 1-5) with C-terminal GlyHis6, baculovirus expressed (protein)
chain: GRTCPKPDDLPFSTVVPLKTFYEPGEEITYSCKPGYVSRGGMRKFICPLTGLWPINTLKCTPRVCPFAGILENGAVRYTTFEYPNTISFSCNTGFYLNGADSAKCTEEGKWSPELPVCAPIICPPPSIPTFATLRVYKPSAGNNSLYRDTAVFECLPQHAMFGNDTITCTTHGNWTKLPECREVKCPFPSRPDNGFVNYPAKPTLYYKDKATFGCHDGYSLDGPEEIECTKLGNWSAMPSCKASCKLPVKKATVVYQGERVKIQEKFKNGMLHGDKVSFFCKNKEKKCSYTEDAQCIDGTIEVPKCFKEHSSLAFWKTDASDVKPCGHHHHHH
BIAcore Req (APS patient plasma; non-selective patient 6117, IgG-stripped Plasma (1:2)): 0
BIAcore Req (APS patient plasma; non-selective patient 6117, Total IgG (1:4)): 120
BIAcore Req (APS patient plasma; non-selective patient 6117, Whole Plasma (1:2)): 324
BIAcore Req (APS patient plasma; non-selective patient 6194, IgG-stripped Plasma (1:2)): 0
BIAcore Req (APS patient plasma; non-selective patient 6194, Total IgG (1:4)): 470
BIAcore Req (APS patient plasma; non-selective patient 6194, Whole Plasma (1:2)): 2046
BIAcore Req (APS patient plasma; non-selective patient 6611, IgG-stripped Plasma (1:2)): 0
BIAcore Req (APS patient plasma; non-selective patient 6611, Total IgG (1:4)): 251
BIAcore Req (APS patient plasma; non-selective patient 6611, Whole Plasma (1:2)): 892
BIAcore Req (APS patient plasma; non-selective patient 6627, IgG-stripped Plasma (1:2)): 0
BIAcore Req (APS patient plasma; non-selective patient 6627, Total IgG (1:4)): 132
BIAcore Req (APS patient plasma; non-selective patient 6627, Whole Plasma (1:2)): 324
BIAcore Req (APS patient plasma; non-selective patient 6649, IgG-stripped Plasma (1:2)): 0
BIAcore Req (APS patient plasma; non-selective patient 6649, Total IgG (1:4)): 253
BIAcore Req (APS patient plasma; non-selective patient 6649, Whole Plasma (1:2)): 758
BIAcore Req (APS patient plasma; non-selective patient 7013, IgG-stripped Plasma (1:2)): 0
BIAcore Req (APS patient plasma; non-selective patient 7013, Total IgG (1:4)): 115
BIAcore Req (APS patient plasma; non-selective patient 7013, Whole Plasma (1:2)): 241
BIAcore Req (APS patient plasma; patient 6207, IgG-stripped Plasma (1:2)): 0
BIAcore Req (APS patient plasma; patient 6207, Total IgG (1:4)): 480
BIAcore Req (APS patient plasma; patient 6207, Whole Plasma (1:2)): 1450
BIAcore Req (APS patient plasma; patient 6501, IgG-stripped Plasma (1:2)): 0
BIAcore Req (APS patient plasma; patient 6501, Total IgG (1:4)): 732
BIAcore Req (APS patient plasma; patient 6501, Whole Plasma (1:2)): 1526
BIAcore Req (APS patient plasma; patient 6515, IgG-stripped Plasma (1:2)): 0
BIAcore Req (APS patient plasma; patient 6515, Total IgG (1:4)): 440
BIAcore Req (APS patient plasma; patient 6515, Whole Plasma (1:2)): 1024
BIAcore Req (APS patient plasma; patient 6601, IgG-stripped Plasma (1:2)): 0
BIAcore Req (APS patient plasma; patient 6601, Total IgG (1:4)): 266
BIAcore Req (APS patient plasma; patient 6601, Whole Plasma (1:2)): 792
BIAcore Req (APS patient plasma; patient 6626, IgG-stripped Plasma (1:2)): 49
BIAcore Req (APS patient plasma; patient 6626, Total IgG (1:4)): 1132
BIAcore Req (APS patient plasma; patient 6626, Whole Plasma (1:2)): 1622
BIAcore Req (APS patient plasma; patient 6642, IgG-stripped Plasma (1:2)): 48
BIAcore Req (APS patient plasma; patient 6642, Total IgG (1:4)): 480
BIAcore Req (APS patient plasma; patient 6642, Whole Plasma (1:2)): 811
BIAcore Req (APS patient plasma; patient 6701, IgG-stripped Plasma (1:2)): 0
BIAcore Req (APS patient plasma; patient 6701, Total IgG (1:4)): 460
BIAcore Req (APS patient plasma; patient 6701, Whole Plasma (1:2)): 952
BIAcore Req (APS patient plasma; patient 6703, IgG-stripped Plasma (1:2)): 0
BIAcore Req (APS patient plasma; patient 6703, Total IgG (1:4)): 556
BIAcore Req (APS patient plasma; patient 6703, Whole Plasma (1:2)): 1001
BIAcore Req (APS patient plasma; patient 7015, IgG-stripped Plasma (1:2)): 0
BIAcore Req (APS patient plasma; patient 7015, Total IgG (1:4)): 864
BIAcore Req (APS patient plasma; patient 7015, Whole Plasma (1:2)): 2092
BIAcore Req (APS patient plasma; patient 7201, IgG-stripped Plasma (1:2)): 0
BIAcore Req (APS patient plasma; patient 7201, Total IgG (1:4)): 292
BIAcore Req (APS patient plasma; patient 7201, Whole Plasma (1:2)): 603
Median Req (APS patient plasma; serum of 106 APS patients (GPL ≧ 20)): 635
Req (mean ± sem) (APS patient plasma; serum of 106 APS patients (GPL ≧ 20), listed as D1-5): 730 ± 42
Req (mean ± sem) (APS patient plasma; serum of 106 APS patients (GPL ≧ 20), listed as β2-GPI(D1-5)): 730
Median Req (Normal human plasma): 201
Req (mean ± sem) (Normal human plasma; listed as D1-5): 328 ± 52
Req (mean ± sem) (Normal human plasma; listed as β2-GPI(D1-5)): 328
